According to the Immune Epitope Database (IEDB):

Assays:
[1] = target: HLA-A*02:06; experiment: IEDB peptide-MHC binding, purified MHC/competitive/fluorescence; filed as Kd, often an IC50 or EC50 that approximates it; ≥ and ≤ were set here for values at or beyond the usual limits of such assays; details: source organism: Human immunodeficiency virus 1
[2] = target: HLA-A*11:01; experiment: as above; details: source organism: Human immunodeficiency virus 1
[3] = target: HLA-B*08:02; experiment: as above; details: source organism: Human immunodeficiency virus 1
[4] = target: HLA-A*31:01; experiment: as above; details: source organism: Human immunodeficiency virus 1
[5] = target: HLA-A*03:01; experiment: as above; details: source organism: Human immunodeficiency virus 1
[6] = target: HLA-B*15:17; experiment: as above; details: source organism: Human immunodeficiency virus 1
[7] = target: HLA-A*30:01; experiment: as above; details: source organism: Human immunodeficiency virus 1
[8] = target: HLA-A*01:01; experiment: as above; details: source organism: Human immunodeficiency virus 1
[9] = target: HLA-A*02:01; experiment: as above; details: source organism: Human immunodeficiency virus 1
[10] = target: HLA-A*26:02; experiment: as above; details: source organism: Human immunodeficiency virus 1
[11] = target: HLA-A*69:01; experiment: as above; details: source organism: Human immunodeficiency virus 1
[12] = target: HLA-A*02:03; experiment: as above; details: source organism: Human immunodeficiency virus 1
[13] = target: HLA-A*26:03; experiment: as above; details: source organism: Human immunodeficiency virus 1
[14] = target: HLA-A*68:02; experiment: as above; details: source organism: Human immunodeficiency virus 1
[15] = target: HLA-A*02:07; experiment: IEDB peptide-MHC binding, purified MHC/competitive/radioactivity; filed as Kd, often an IC50 or EC50 that approximates it; ≥ and ≤ were set here for values at or beyond the usual limits of such assays; details: source organism: Hepatitis C virus (isolate Taiwan)
[16] = target: HLA-A*02:05; experiment: as above; details: source organism: Hepatitis C virus (isolate Taiwan)

Sequence	Kd [1] [nM]	Kd [2] [nM]	Kd [3] [nM]	Kd [4] [nM]	Kd [5] [nM]	Kd [6] [nM]	Kd [7] [nM]	Kd [8] [nM]	Kd [9] [nM]	Kd [10] [nM]	Kd [11] [nM]	Kd [12] [nM]	Kd [13] [nM]	Kd [14] [nM]	Kd [15] [nM]	Kd [16] [nM]
VLYCVHQEI	4.05	≥ 20000	≥ 20000	≥ 20000	≥ 20000	345	12300	≥ 20000	7	≥ 20000	824	8.8	≥ 20000	233	–	–
YLVAYQATV	–	–	–	–	–	–	–	–	–	–	–	–	–	–	2300	8.5
